# Like-named read-outs stand apart in the source and are kept apart here.
# B1: IL-29: human IL-29 cytokine polypeptide (zcyto21), e.g. SEQ ID NO:20 (protein, listed as Homo sapiens)
# chain: MAAAWTVVLVTLVLGLAVAGPVPTSKPTTTGKGCHIGRFKSLSPQELASFKKARDALEESLKLKNWSCSSPVFPGNWDLRLLQVRERPVALEAELALTLKVLEAAAGPALEDVLDQPLHTLHHILSQLQACIQPQPTAGPRPRGRLHHWLHRLQEAPKKESAGCLEASVTFNLFRLLTRDLKYVADGNLCLRTSTHPEST
# modifications: SIGNAL (1)...(19)
# How the values were obtained:
# BVDV = BVDV inhibition of cytopathic effect assay in MDBK cells; type: cell-based, bovine viral diarrhea virus; settings: MDBK bovine kidney cells, day 7
# Protocol: The MDBK cells were propagated in Dulbecco's modified essential medium (DMEM) containing phenol red with 10% horse serum, 1% glutamine and 1% penicillin-streptomycin. CPE inhibition assays were performed in DMEM without phenol red with 2% FBS, 1% glutamine and 1% Pen-Strep. On the day preceding the assays, cells were trypsinized (1% trypsin-EDTA), washed, counted and plated out at 10^4 cells/well in a 96-well flat-bottom BioCoat® plates (Fisher Scientific, Pittsburgh, Pa.) in a volume of 100 μl/well. The next day, the medium was removed and a pre-titered aliquot of virus was added to the cells. The amount of virus was the maximum dilution that would yield complete cell killing (>80%) at the time of maximal CPE development (day 7 for BVDV). Cell viability was determined using a CellTiter96® reagent (Promega) according to the manufacturer's protocol, using a Vmax plate reader (Molecular Devices, Sunnyvale, Calif.). Test samples were tested at six concentrations each, diluted in assay medium in a half-log series. IFNα and RIBAVIRIN® were used as positive controls. Test sample were added at the time of viral infection. The average background and sample color-corrected data for percent CPE reduction and percent cell viability at each concentration were determined relative to controls and the IC50 calculated relative to the TC50.
# Adenovirus = type: cell-based
# [1] = test system: Respiratory syncytial virus; type: cell-based
# Rhino 2 [2] = type: cell-based, rhino virus; settings: Rhino 2, KB
# Rhino 9 [3] = type: cell-based, rhino virus; settings: Rhino 9, HeLa
# Vaccinia virus = type: cell-based; settings: Vero
# Dengue virus [4] = type: cell-based; settings: Vero
# [5] = test system: Venezuelan equine encephalitis virus; type: cell-based; settings: Vero
# Pichinde virus [6] = type: cell-based
# [7] = test system: Respiratory syncytial virus; type: cell-based; settings: MA-104 cells, Neutral Red Assay
# Rhino 2 [8] = type: cell-based, rhino virus; settings: Rhino 2, KB cells, Neutral Red Assay
# Rhino 9 [9] = type: cell-based, rhino virus; settings: Rhino 9, HeLa cells, Neutral Red Assay
# [10] = test system: Influenza (type A [H3N2]); type: cell-based; settings: Maden-Darby Canine Kidney cells, Neutral Red Assay
# [11] = test system: Influenza (type A [H3N2]); type: cell-based; settings: Vero cells, Neutral Red Assay
# West Nile virus = type: cell-based; settings: Vero cells, Neutral Red Assay
# Dengue virus [12] = type: cell-based; settings: Vero cells, Neutral Red Assay
# Pichinde virus [13] = type: cell-based; remark: listed apart in the source
# [14] = test system: spleens of transgenic mice; experiment: ISG expression in spleens of Eu-lck human IL-29 transgenic mice (real-time PCR); type: in vivo, mouse; settings: spleens of Eu-lck IL-29 transgenic mice; fold expression relative to HPRT; average of two mice
# Protocol: This promoter is active in T cells and B cells. Transgenic mice and their non-transgenic littermates (n=2/gp) were sacrificed at about 10 weeks of age. Spleens of mice were isolated. RNA was isolated from cell pellets using RNAEasy-kit® (Qiagen). RNA was treated with DNase to clean RNA of any contaminating DNA. cDNA was generated using Perkin-Elmer RT® mix. ISG gene induction was evaluated by real-time PCR using primers and probes (5′ FAM, 3′ NFQ) specific for mouse OAS, Pkr and Mx1. To obtain quantitative data, HPRT real-time PCR was duplexed with ISG PCR. Furthermore, a standard curve was obtained using known amounts of IFN stimulated mouse PBLs. All data are shown as expression relative to internal HPRT expression.
# [15] = test system: liver, spleen and blood of mice; experiment: ISG gene expression (OAS, Pkr, Mx1) in liver, spleen and blood of injected C57BL/6 mice (real-time PCR); type: in vivo, mouse; settings: for OAS-1 hr / OAS-6 hr / OAS-24 hr / OAS-48 hr: single injection of 250 μg i.v., average of 5 animals; for OAS (24 hr): fold expression relative to HPRT
# Protocol: Mice were sacrificed at various time points (1 hr-48 hr). Spleens and livers were isolated from mice, and RNA was isolated. RNA was also isolated from the blood cells. The cells were pelleted and RNA isolated from pellets using RNAEasy®-kit (Qiagen). RNA was treated with DNase (Amicon) to rid RNA of any contaminating DNA. cDNA was generated using Perkin-Elmer RT mix (Perkin-Elmer). ISG gene induction was measured by real-time PCR using primers and probes specific for mouse OAS, Pkr and Mx1. To obtain quantitative data, HPRT real-time PCR was duplexed with ISG PCR. A standard curve was calculated using known amounts of IFN-stimulated mouse PBLs. All data are shown as expression relative to internal HPRT expression.
# adenoviral vector AdGFP = experiment: Adenoviral vector (AdGFP) liver pathology model in C57Bl/6 mice; settings: AdGFP-infected C57Bl/6 mice, 50 μg i.p., 7 doses
molecule,measurement,setting,value
B1,IC50 (inhibition of cell death induced by BVDV),BVDV,0.19 µg/mL
same,EC50 Visual,Adenovirus; A549,>10 µg/mL
same,IC50 Visual,"Adenovirus; A549, numerator of SI",>10 µg/mL
same,EC50 Visual,[1]; MA-104,>10 µg/mL
same,IC50 Visual,"[1]; MA-104, numerator of SI",>10 µg/mL
same,EC50 Visual,Rhino 2 [2],>10 µg/mL
same,IC50 Visual,Rhino 2 [2]; numerator of SI,>10 µg/mL
same,EC50 Visual,Rhino 9 [3],>10 µg/mL
same,IC50 Visual,Rhino 9 [3]; numerator of SI,>10 µg/mL
same,EC50 Visual,Vaccinia virus,>10 µg/mL
same,IC50 Visual,Vaccinia virus; numerator of SI,>10 µg/mL
same,EC50 Visual,Dengue virus [4],0.032 µg/mL
same,IC50 Visual,Dengue virus [4]; numerator of SI,>10 µg/mL
same,EC50 Visual,[5],0.012 µg/mL
same,IC50 Visual,[5]; numerator of SI,>10 µg/mL
same,EC50 Visual,Pichinde virus [6],>10 µg/mL
same,IC50 Visual,Pichinde virus [6],>10 µg/mL
same,EC50 NR,[7],>10 µg/mL
same,IC50 NR,[7],>10 µg/mL
same,EC50 NR,Rhino 2 [8],>10 µg/mL
same,IC50 NR,Rhino 2 [8],>10 µg/mL
same,EC50 NR,Rhino 9 [9],0.982 µg/mL
same,IC50 NR,Rhino 9 [9],>10 µg/mL
same,EC50 NR,[10],>10 µg/mL
same,IC50 NR,[10],>10 µg/mL
same,EC50 NR,[11],2 µg/mL
same,IC50 NR,[11],>10 µg/mL
same,EC50 NR,West Nile virus,0.00025 µg/mL
same,IC50 NR,West Nile virus,>10 µg/mL
same,EC50 NR,Dengue virus [12],0.05 µg/mL
same,IC50 NR,Dengue virus [12],>10 µg/mL
same,EC50 NR,Pichinde virus [13],>10 µg/mL
same,IC50 NR,Pichinde virus [13],>10 µg/mL
same,Mx1,[14],21
same,OAS,[14],12
same,PkR,[14],8
same,sustained expression of ISGs above control mice,[15]; C57BL/6 mice,up to 48 hours
same,time of peak expression of ISGs after injection,[15]; C57BL/6 mice,1 to 6 h
same,"ISG gene expression (OAS, Pkr, Mx1) in the livers, spleen and blood of mice","[15]; C57BL/6 mice, i.p or i.v, 10 μg-250 μg",induced ISG gene expression
same,OAS-1 hr,"[15]; blood, C57BL/6 mice",12 fold expression relative to HPRT gene expression
same,OAS-6 hr,"[15]; blood, C57BL/6 mice",18 fold expression relative to HPRT gene expression
same,OAS-24 hr,"[15]; blood, C57BL/6 mice",11 fold expression relative to HPRT gene expression
same,OAS-48 hr,"[15]; blood, C57BL/6 mice",10 fold expression relative to HPRT gene expression
same,OAS-1 hr,"[15]; liver, C57BL/6 mice",2.5 fold expression relative to HPRT gene expression
same,OAS-6 hr,"[15]; liver, C57BL/6 mice",4 fold expression relative to HPRT gene expression
same,OAS-24 hr,"[15]; liver, C57BL/6 mice",2.5 fold expression relative to HPRT gene expression
same,OAS-48 hr,"[15]; liver, C57BL/6 mice",2.8 fold expression relative to HPRT gene expression
same,OAS (24 hr),[15]; mice injected with 10 μg,3.7
same,OAS (24 hr),[15]; mice injected with 50 μg,4.2
same,OAS (24 hr),[15]; mice injected with 250 μg,6
same,OAS-1 hr,"[15]; spleen, C57BL/6 mice",4 fold expression relative to HPRT gene expression
same,OAS-6 hr,"[15]; spleen, C57BL/6 mice",6 fold expression relative to HPRT gene expression
same,OAS-24 hr,"[15]; spleen, C57BL/6 mice",3.2 fold expression relative to HPRT gene expression
same,OAS-48 hr,"[15]; spleen, C57BL/6 mice",3.2 fold expression relative to HPRT gene expression
same,liver histology: cellular changes versus PBS treatment group,adenoviral vector AdGFP,"less proliferation of sinusoidal cells, fewer mitotic figures and fewer changes in the hepatocytes"
same,liver histology: liver and inflammation scores versus PBS-treated group,adenoviral vector AdGFP,lower liver and inflammation scores
same,average serum AST,adenoviral vector AdGFP; n=8,162 U/L
same,serum ALT,adenoviral vector AdGFP; n=8,184 U/L

# Source: patent US20120114590A1 (priority 2005, published 2012)
